According to patent US20110223188A1, “TARGETED COSTIMULATORY POLYPEPTIDES AND METHODS OF USE TO TREAT CANCER” (priority 2008, published 2011):

Assays:
[1] = tested on: Treg; CD4+ T cells expressing high PD-1; assay: T cell analysis (Treg, PD-1+/CD4+ T cells) in CT26 tumor-bearing mice; format: in vivo, Balb/C mice
Procedure: (§1) On Day 9, mice were injected with 100 mg/kg of CTX, IP. Twenty four hours later, on Day 10, mice were treated with 100 ug of 137-DC-Ig. […] Two naïve mice and 4 mice from other groups were removed from the study on Day 11 (2 days post CTX) and Day 16 (7 days post CTX) for T cell analysis. […] Mice implanted with tumor cells intended to have more PD-1+/CD4+ T cells in the draining LN compared with naïve mice.
as §1, with “IP.” for “IP. Twenty four hours later, on Day 10, mice were treated with 100 ug of 137-DC-Ig.”

[2] = tested on: SP-1 mouse prostate tumor cells; assay: Metastatic prostate lung tumor model (SP-1), survival; format: in vivo, B10.D2 mice; conditions: CTX 50 mg/kg Day 5, 12, 19; B7-DC-Ig 5 mg/kg Day 6, 13, 20
Procedure: SP-1 cells were isolated from mouse lungs that were metastasized from. TRAMP prostate tumor cell injection. B10.D2 mice were first injected with 3×10^5 SP-1 cells via tail vein injection. On Day 5, 12 and 19, mice were injected with 50 mg/kg of CTX where was indicated. […] Here, “NT” refers to “not treated”.
The CTX mice received 3 doses of CTX, 50 mg/kg, on Day 5, 12 and 19.

[3] = tested on: CT26 colorectal tumor cells; assay: Established CT26 colorectal tumor model (subcutaneous); conditions: CTX 100 mg/kg on day 10 alone
Excerpt: Balb/C mice at age of 9 to 11 weeks were implanted subcutaneously with 1.0×10^5 CT26 colorectal tumor cells.

P815 mastocytoma = P815 mastocytoma tumor model; format: in vivo, DBA/2 mice
Procedure: P815 mastocytoma cells were derived from DBA/2 mice after methylcholanthrene (MCA) treatment. Injection of 5×10^4 cells SC can result in mortality approximately 35 days post tumor inoculation.
DBA/2 mice (6-10 weeks of age, females) were first challenged with 5×10^4 live P815 cells injected SC in the flank. Six days later, the mice were treated with murine B7-DC-Ig via IP injection. […] Control groups were treated with vehicle only or with murine IgG. Tumor size was measured with digital calipers every 2-3 days. Mice were euthanized and defined as dead when their tumor size reached or exceeded 1000 mm^3, according to protocols approved by the Institutional Animal Care and Use Committee (IACUC) of the American Red Cross (ARC; the site of Amplimmune's vivarium). Surviving tumor free mice were re-challenged with P815 tumor cells on Day 52.
The tumor-free mice were then re-challenged with 5×10^4P815 cells administered to the flank opposite the primary inoculation site on Day 52.

[4] = number of mice, 5 per group, P815 cells SC, treatment IP biw 3 weeks starting Day 6

Row | Molecule | Treg in the spleen vs tumor-implanted vehicle-injected mice ([1]; Day 11, 2 days post CTX 100 mg/kg IP) | mice survived on Day 100 [2] | outcome of mice (tumor growth/survival) [3] | CD4+ T cells expressing high PD-1 ([1]; Day 16, 7 days post CTX and 6 days post B7-DC-Ig 100 ug) | mice responded to treatment (P815 mastocytoma; 100 μg per injection (approximately 5 mg/kg) IP, 2 times per week, up to 6 doses) | # Tumor <500 mm^3 (P815 mastocytoma; [4]) | # Tumor free (P815 mastocytoma; [4]) | # Tumor ≧500 mm^3 (P815 mastocytoma; [4]) | mice in which tumor was eradicated (P815 mastocytoma; of 5 treated mice) | mice showing delayed tumor growth during treatment (P815 mastocytoma; of 5 treated mice) | tumor status after re-challenge with P815 cells on Day 52 (P815 mastocytoma; tumor-free mice re-challenged on opposite flank, followed through 74 days after primary inoculation)
1 | O=P1(N(CCCl)CCCl)NCCCO1 (stereo not drawn) [CTX, cyclophosphamide, reference compound] | significantly lower | 17% | died as a result of tumor growth or were euthanized |  |  |  |  |  |  |  | 
2 | Murine B7-DC-Ig: murine B7-DC fusion protein: B7-DC extracellular domain fused to murine immunoglobulin Cγ2a hinge, CH2, CH3 (likely SEQ ID NO:80/81) (protein, Synthetic murine B7-DC fusion protein with signal peptide) MLLLLPILNLSLQLHPVAALFTVTAPKEVYTVDVGSSVSLECDFDRRECTELEGIRASLQKVENDTSLQSERATLLEEQLPLGKALFHIPSVQVRDSGQYRCLVICGAAWDYKYLTVKVKASYMRIDTRILEVPGTGEVQLTCQARGYPLAEVSWQNVSVPANTSHIRTPEGLYQVTSVLRLKPQPSRNFSCMFWNAHMKELTSAIIDPLSRMEPKVPRTWEPRGPTIKPCPPCKCPAPNLLGGPSVFIFPPKIKDVLMISLSPIVTCVVVDVSEDDPDVQISWFVNNVEVHTAQTQTHREDYNSTLRVVSALPIQHQDWMSGKEFKCKVNNKDLPAPIERTISKPKGSVRAPQVYVLPPPEEEMTKKQVTLTCMVTDFMPEDIYVEWTNNGKTELNYKNTEPVLDSDGSYFMYSKLRVEKKNWVERNSYSCSVVHEGLHNHHTTKSFSRTPGK |  | 17% |  | significantly lowered | Four of 5 | 2 | 2 | 1 | two | two | remained tumor free
